The data set deals with the molecule itself. As to the kind of experiment: SEC-MALS; pH 8: 100 ul at 1 mg/ml on Superdex 200 Increase 10/300 GL in 100 mM Tris-HCl, pH 8, 250 mM NaCl; protein conjugate analysis for glycans; dimer to monomers. A general note: SEC sorts molecules by how far they enter the pores of the column.

B1: PTPRK MAM-Ig-FN1 domains (domain or fragment, human, UniProt Q15262-3 28-385, looked up)
chain: QGQFSAGGCTFDDGPGACDYHQDLYDDFEWVHVSAQEPHYLPPEMPQGSYMIVDSSDHDPGEKARLQLPTMKENDTHCIDFSYLLYSQKGLNPGTLNILVRVNKGPLANPIWNVTGFTGRDWLRAELAVSTFWPNEYQVIFEAEVSGGRSGYIAIDDIQVLSYPCDKSPHFLRLGDVEVNAGQNATFQCIATGRDAVHNKLWLQRRNGEDIPVAQTKNINHRRFAASFRLQEVTKTDQDLYRCVTQSERGSGVSNFAQLIVREPPRPIAPPQLLGVGPTYLLIQLNANSIIGDGPIILKEVEYRMTSGSWTETHAVNAPTYKLWHLDPDTEYEIRVLLTRPGEGGTGLPGPPLITRTK
modifications: native N-linked glycans (no deglycosylation); glycans seen in the structure at N101, N140 and N211
notes: human PTPRK, N-terminal MAM, Ig and first FN domains, residues 28-385; numbers count on: UniProt Q15262-3; Cloned into pHLSec (AgeI/KpnI) in frame with the vector's N-terminal secretion signal; also called PTPRK-MIFN1; MIFN1
What is called stoichiometry N is the number of molecules, sites or subunits per partner or assembly. Turning to B1, the “stoichiometry N” value is 2.

B2: PTPRK-MIFN1.W351G (domain or fragment, human, UniProt Q15262-3 28-385, looked up)
chain: QGQFSAGGCTFDDGPGACDYHQDLYDDFEWVHVSAQEPHYLPPEMPQGSYMIVDSSDHDPGEKARLQLPTMKENDTHCIDFSYLLYSQKGLNPGTLNILVRVNKGPLANPIWNVTGFTGRDWLRAELAVSTFWPNEYQVIFEAEVSGGRSGYIAIDDIQVLSYPCDKSPHFLRLGDVEVNAGQNATFQCIATGRDAVHNKLWLQRRNGEDIPVAQTKNINHRRFAASFRLQEVTKTDQDLYRCVTQSERGSGVSNFAQLIVREPPRPIAPPQLLGVGPTYLLIQLNANSIIGDGPIILKEVEYRMTSGSWTETHAVNAPTYKLGHLDPDTEYEIRVLLTRPGEGGTGLPGPPLITRTK
notes: human PTPRK, MAM-Ig-FN1 domains, residues 28-385, with W351G; numbers count on: UniProt Q15262-3; PDB 8A1F is the wild-type parent; also called W315G mutant form of PTPRK-MIFN1; source: expressed and purified (as PTPRK-MIFN1: human embryonic kidney-293F cells, nickel-nitrilotriacetic acid agarose, SEC)
As for B2, the binding result is listed as “binds”.

B3: full-length PTPRK extracellular domain (domain or fragment, human, UniProt Q15262-3 28-752, looked up)
chain: QGQFSAGGCTFDDGPGACDYHQDLYDDFEWVHVSAQEPHYLPPEMPQGSYMIVDSSDHDPGEKARLQLPTMKENDTHCIDFSYLLYSQKGLNPGTLNILVRVNKGPLANPIWNVTGFTGRDWLRAELAVSTFWPNEYQVIFEAEVSGGRSGYIAIDDIQVLSYPCDKSPHFLRLGDVEVNAGQNATFQCIATGRDAVHNKLWLQRRNGEDIPVAQTKNINHRRFAASFRLQEVTKTDQDLYRCVTQSERGSGVSNFAQLIVREPPRPIAPPQLLGVGPTYLLIQLNANSIIGDGPIILKEVEYRMTSGSWTETHAVNAPTYKLWHLDPDTEYEIRVLLTRPGEGGTGLPGPPLITRTKCAEPMRTPKTLKIAEIQARRIAVDWESLGYNITRCHTFNVTICYHYFRGHNESKADCLDMDPKAPQHVVNHLPPYTNVSLKMILTNPEGRKESEETIIQTDEDVPGPVPVKSLQGTSFENKIFLNWKEPLDPNGIITQYEISYSSIRSFDPAVPVAGPPQTVSNLWNSTHHVFMHLHPGTTYQFFIRASTVKGFGPATAINVTTNISAPTLPDYEGVDASLNETATTITVLLRPAQAKGAPISAYQIVVEELHPHRTKREAGAMECYQVPVTYQNAMSGGAPYYFAAELPPGNLPEPAPFTVGDNRTYQGFWNPPLAPRKGYNIYFQAMSSVEKETKTQCVRIATKAAATEEPEVIPDPAKQTDRVV
modifications: native N-linked glycans (no deglycosylation)
notes: human PTPRK, full extracellular domain (MAM, Ig, FN1-4), residues 28-752; numbers count on: UniProt Q15262-3; Cloned into pHLSec (AgeI/KpnI) in frame with the vector's N-terminal secretion signal; The C-terminal His6 tag was included in the SAXS models; also called PTPRK-ECD; PTPRK full ECD; not shown: Lys-His6, C-terminal, kept
With B3, the “stoichiometry N” value is 2.

These data come from publication PMC9800333, “Determinants of receptor tyrosine phosphatase homophilic adhesion: Structural comparison of PTPRK and PTPRM extracellular domains” (The Journal of Biological Chemistry, 2022).
